From PMC10272835, “Exploration of T cell immune responses by expression of a dominant-negative SHP1 and SHP2” (Frontiers in Immunology, 2023)

B1: CD155: inhibitory ligand of TIGIT expressed on SupT1-GD2 cells (protein, UniProt P15151 21-417, looked up)
Poliovirus receptor: WPPPGTGDVVVQAPTQVPGFLGDSVTLPCYLQVPNMEVTHVSQLTWARHGESGSMAVFHQTQGPSYSESKRLEFVAARLGAELRNASLRMFGLRVEDEGNYTCLFVTFPQGSRSVDIWLRVLAKPQNTAEVQKVQLTGEPVPMARCVSTGGRPPAQITWHSDLGGMPNTSQVPGFLSGTVTVTSLWILVPSSQVDGKNVTCKVEHESFEKPQLLTVNLTVYYPPEVSISGYDNNWYLGQNEATLTCDARSNPEPTGYNWSTTMGPLPPFAVAQGAQLLIRPVDKPINTTLICNVTNALGARQAELTVQVKEGPPSEHSGISRNAIIFLVLGILVFLILLGIGIYFYWSKCSREVLWHCHLCPSSTEHASASANGHVSYSAVSRENSSSQDPQTEGTR
B2: HVEM: inhibitory ligand of BTLA expressed on SupT1-GD2 cells (protein, UniProt Q92956 39-283, looked up)
Tumor necrosis factor …: LPSCKEDEYPVGSECCPKCSPGYRVKEACGELTGTVCEPCPPGTYIAHLNGLSKCLQCQMCDPAMGLRASRNCSRTENAVCGCSPGHFCIVQDGDHCAACRAYATSSPGQRVQKGGTESQDTLCQNCPPGTFSPNGTLEECQHQTKCSWLVTKAGAGTSSSHWVWWFLSGSLVIVIVCSTVGLIICVKRRKPRGDVVKVIVSVQRKRQEAEGEATVIEALQAPPDVTTVAVEETIPSFTGRSPNH

System: SupT1-GD2 cells
Assay: Effect of inhibitory ligand expression on GD2 CAR cytotoxicity
Type: cell-based
Conditions: ligand expressed on SupT1-GD2, E:T 1:4 and 1:8, 6 days
Protocol: Transduced T cells were depleted of CD56 cells using the EasySep Human CD56 positive selection kit (Stemcell Technologies; 17855) and rested for 24 hours. Transduced cells were co-cultured with target cells at the indicated effector: target (E:T) ratios with target cells remaining constant at the indicated number of target cells/co-culture. At the end of the co-culture period target cells were enumerated by flow cytometry and cytotoxicity calculated as a percentage of the number of target cells recovered from co-cultures with non-transduced (NT) T cells.
Figure 3 Interaction of dSHP2 with immunoinhibitory T cell receptors. (A-E) Binding of dSHP2 to phosphorylated peptides derived from the endodomains of immunoinhibitory T cell receptors. Plates were coated with phosphorylated or non-phosphorylated peptide at the indicated concentration and the purified, His-tagged SH2 domains of dSHP2 were allowed to bind overnight. Binding was measured through detection of the His tag. (F) Effect of inhibitory ligand expression on target cells on CAR T cytotoxicity. […] Supernatants were harvested from these co-cultures and levels of IFNγ measured by ELISA (I). […] Statistical significance was measured by two-way ANOVA. […]

Molecule	effect of target cell ligand expression on CAR T cytotoxicity
B1	mild enhancement of CAR T cytotoxicity
B2	mild enhancement of CAR T cytotoxicity
